Assay results from the RNAGym collection of RNA variant scans (doi:10.7554/elife.80360).

B1: CPEB3 Ribozyme (parent)
chain: GGGGGCCACAGCAGAAGCGUUCACGUCGCGGCCCCUGUCAGAUUCUGGUGAAUCUGCGAAUUCUGCUGU

Variants of: B1
Assay: self-cleavage, relative activity (ratio to wild type); higher = more cleavage; co-transcriptional
Variant GGGGGCCACAGCAGUAGCGUUCACGUCGCGGCCCCUGUCAGAUACUGGUGAAUCUGCGAAUUCUGCUGU has a self-cleavage of 0.705.
For GGGGGCCACAGCAGUAGCGUUCACGUCGCGGCCCCUGUCAGAUUCUGGUGAAUCUCCGAAUUCUGCUGU, the self-cleavage was 0.402.
For GGGGGCCACAGCAGUAGCGUUCACGUCGCGGCCCCUGUCAGAUUCUGGUGAAUCUACGAAUUCUGCUGU, the self-cleavage was 0.648.
In the case of GGGGGCCACAGCAGUAGCGUUCACGUCGCGGCCCCUGUCAGAUUCUGGUGAAUCUGCGAAUUCUGCUGG, the self-cleavage is reported as 0.998.
GGGGGCCACAGCAGUAGCGUUCACGUCGCGGCCCCUGUCAGAUUCUGGUGAAUCUGCGAAGUCUGCUGU showed a self-cleavage of 0.854.
GGGGGCCACAGCAGUAGCGUUCACGUCGCGGCCCCUGUCAGAUUCUGGUGAAUCUGCGAACUCUGCUGU gave a self-cleavage of 0.686.
In the case of GGGGGCCACAGCAGUAGCGUUCACGUCGCGGCCCCUGUCAGAUUCUGGUGAAUCUGCGAAUUCUGCUCU, the self-cleavage is reported as 0.929.
Variant GGGGGCCACAGCAGUAGCGUUCACGUCGCGGCCCCUGUCACAUUCUGGUGAAUCUGCGAAUUCUGCUGU has a self-cleavage of 0.257.
Variant GGGGGCCACAGCAGUAGCGUUCACGUCGCGGCCCCUGUCAUAUUCUGGUGAAUCUGCGAAUUCUGCUGU has a self-cleavage of 0.378.
GGGGGCCACAGCAGUAGCGUUCACGUCGCGGCCCCUGUCAGAUUCUGGUGAAUCUGCGAAUUCUCCUGU showed a self-cleavage of 0.433.
GGGGGCCACAGCAGUAGCGUUCACGUCGCGGCCCCUGUCAGAUUCCGGUGAAUCUGCGAAUUCUGCUGU showed a self-cleavage of 0.848.
Work on GGGGGCCACAGCAGUAGCGUUCACGUCGCGGCCCCUGUCAGAUUCUGGAGAAUCUGCGAAUUCUGCUGU yielded a self-cleavage of 0.931.
For GGGGGCCACAGCAGUAGCGUUCACGUCGCGGCCCCUGUCAGAUUCUGGCGAAUCUGCGAAUUCUGCUGU, the self-cleavage was 0.817.
GGGGGCCACAGCAGUAGCGUUCACGUCGCGGCCCCUGUCAGAUUCUGGGGAAUCUGCGAAUUCUGCUGU showed a self-cleavage of 0.884.
GGGGGCCACAGCAGACGCGUUCACGUCGCGGCCCCUGUCAGAUUCUGGUGAAUCUGCGAAUUCUGCUGU gave a self-cleavage of 0.373.
Work on GGGGGCCACAGCAGUAGCGUUCACGUCGCGGCCCCUGACAGAUUCUGGUGAAUCUGCGAAUUCUGCUGU yielded a self-cleavage of 0.548.
For GGGGGCCACAGCAGUAGCGUUCACGUCGCGGCCCCUGGCAGAUUCUGGUGAAUCUGCGAAUUCUGCUGU, the self-cleavage was 0.178.
Work on GGGGGCCACAGCAGUAGCGUUCACGUCGCGGCCCCUGUCAGAUUCUGGUGAAUCUGCGAAUUCUGCAGU yielded a self-cleavage of 0.889.
GGGGGCCACAGCAGUAGCGUUCACGUCGCGGCCCCUGUCAGAUUCUGGUGAAUCUGCGAAUUCUGCGGU gave a self-cleavage of 0.87.
With GGGGGCCACAGCAGUAGCGUUCACGUCGCGGCCCCUGUCAGAUUCUGAUGAAUCUGCGAAUUCUGCUGU the self-cleavage was 0.925.
Variant GGGGGCCACAGCAGUAGCGUUCACGUCGCGGCCCCUGUCAGAUUCUGGUGAAUCAGCGAAUUCUGCUGU has a self-cleavage of 0.412.
For GGGGGCCACAGCAGUAGCGUUCACGUCGCGGCCCCUGUCAGAUUCUGGUGAAUCCGCGAAUUCUGCUGU, the self-cleavage was 0.418.
With GGGGGCCACAGCAGUAGCGUUCACGUCGCGGCCCCUGUCAGAUUCUCGUGAAUCUGCGAAUUCUGCUGU the self-cleavage was 0.989.
GGGGGCCACAGCAGUAGCGUUCACGUCGCGGCCCCUGUCAGAUUCUUGUGAAUCUGCGAAUUCUGCUGU gave a self-cleavage of 0.919.
For GGGGGCCACAGCAGUAGCGUUCACGUCGCGGCCCCUGUCAGAUUCUAGUGAAUCUGCGAAUUCUGCUGU, the self-cleavage was 0.95.
GGGGGCCACAGCAGUAGCGUUCACGUCGCGGCCCCAGUCAGAUUCUGGUGAAUCUGCGAAUUCUGCUGU gave a self-cleavage of 0.194.
Variant GGGGGCCACAGCAGUAGCGUUCACGUCGCGGCCCCGGUCAGAUUCUGGUGAAUCUGCGAAUUCUGCUGU has a self-cleavage of 0.181.
In the case of GGGGGCCACAGCAGACGCGUUCACGUCGCGGCCCCUGUCAGAUUCUGGUGAAUCUGCGGAUUCUGCUGU, the self-cleavage is reported as 0.287.
GGGGGCCACAGCAGUAGCGUUCACGUCGCCGCCCCUGUCAGAUUCUGGUGAAUCUGCGAAUUCUGCUGU gave a self-cleavage of 0.287.
GGGGGCCACAGCAGUAGCGUUCACGUCGCAGCCCCUGUCAGAUUCUGGUGAAUCUGCGAAUUCUGCUGU showed a self-cleavage of 0.361.
For GGGGGCCACAGCAGUAGCGUUCACGUCGCUGCCCCUGUCAGAUUCUGGUGAAUCUGCGAAUUCUGCUGU, the self-cleavage was 0.184.
With GGGGGCCACAGCAGUAGCGUUCACGUCUCGGCCCCUGUCAGAUUCUGGUGAAUCUGCGAAUUCUGCUGU the self-cleavage was 0.167.
In the case of GGGGGCCACAGCAGUAGCGUUCACGUCCCGGCCCCUGUCAGAUUCUGGUGAAUCUGCGAAUUCUGCUGU, the self-cleavage is reported as 0.206.
Work on GGGGGCCACAGCAGACGCGUUCACGUCGCGGCCCCUGUCAGAUUCUGGUGCAUCUGCGAAUUCUGCUGU yielded a self-cleavage of 0.217.
Work on GGGGGCCACAGCAGACGCGUUCACGUCGCGGCCCCUGUCAGAUUCUGGUGGAUCUGCGAAUUCUGCUGU yielded a self-cleavage of 0.33.
For GGGGGCCACAGCAGACGCGUUCACGUCGCGGCCCCUGUCAGAUUCUGGUGUAUCUGCGAAUUCUGCUGU, the self-cleavage was 0.239.
Work on GGGGGCCACAGCAGUAGCGUUCACGUCGCGGCCCCUGUCAGAAUCUGGUGAAUCUGCGAAUUCUGCUGU yielded a self-cleavage of 0.479.
In the case of GGGGGCCACAGCAGUAGCGUUCACGUCGCGGCCCCUGUCAGACUCUGGUGAAUCUGCGAAUUCUGCUGU, the self-cleavage is reported as 0.731.
In the case of GGGGGCCACAGCAGUAGCGUUCACGUCGCGGCCCCUGUCAGAGUCUGGUGAAUCUGCGAAUUCUGCUGU, the self-cleavage is reported as 0.429.
